Assay results published in article PMC2615620 (Nucleic Acids Research, 2008).
Blank lines part the entries; values can stand above or below the binder they belong to.

Biological target: T1, Snu17 of the RES complex purified from yeast (S. cerevisiae (endogenous in the …, UniProt P40565 1-148))
T1 sequence (looked up): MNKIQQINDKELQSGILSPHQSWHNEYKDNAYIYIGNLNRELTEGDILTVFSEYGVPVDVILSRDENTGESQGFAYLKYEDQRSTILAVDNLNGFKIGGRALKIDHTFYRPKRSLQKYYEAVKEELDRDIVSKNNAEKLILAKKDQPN
Assay: SEC

stoichiometry N: 1
B1: Pml1 of the RES complex purified from yeast (natural protein, UniProt Q07930 1-204, looked up)
chain: MFHRRKRPYNTRNYGHDDKKFKSQYIDIMPDFSPSGLLELESNNKEGIALKHVEPQDAISPDNYMDMLGLEARDRTMYELVIYRKNDKDKGPWKRYDLNGRSCYLVGRELGHSLDTDLDDRTEIVVADIGIPEETSSKQHCVIQFRNVRGILKCYVMDLDSSNGTCLNNVVIPGARYIELRSGDVLTLSEFEEDNDYELIFMNV

stoichiometry N: 1
B2: Bud13 of the RES complex purified from yeast (natural protein, UniProt P46947 1-266, looked up)
chain: MALHQYLSETYGPTKPKNKTKKKKKESKSDANSDKTSLIVKERLSTLQQEQEKSGVASFSKFDKQKSKNIWKNLETNELSHAITHPSASSITGNESKNDLKEIRAQEPLVTVADKSKTRKTIYRDAQGHKIQEDSKIDDSSFSRSKYEDEKAAEREQYLKNLNMGDVQKLGINVDAHDKKKNQTASSLTIEDPAITFTHDKERTVKTSLLGRKLYDKPAPENRFAIMPGSRWDGVHRSNGFEEKWFAKQNEINEKKVQSYTLQEDY
